Experiments:
Assay in all cases: cell-based or functional assay
[1] = molecular target: HIV-1 Env of isolate MGRM-D-005 (HIV-1)
[2] = molecular target: HIV-1 Env of isolate MGRM-F1-010 (subtype F), on pseudovirus (HIV-1)
[3] = molecular target: HIV-1 Env of isolate 92WR026 (HIV-1)
[4] = molecular target: HIV-1 Env of isolate PVO.4 (HIV-1)
[5] = molecular target: HIV-1 Env of isolate MGRM-D-004 (HIV-1)
[6] = molecular target: HIV-1 Env of isolate MGRM-C-028 (HIV-1)
[7] = molecular target: HIV-1 Env of isolate 92WR020 (HIV-1)
[8] = molecular target: HIV-1 JR-CSF Env V127A (HIV-1 (isolate JR-CSF)) (UniProt P20871)
[9] = molecular target: HIV-1 Env of isolate MGRM-F1-023 (subtype F), on pseudovirus (HIV-1)
[10] = molecular target: HIV-1 JR-CSF Env V120A (HIV-1 (isolate JR-CSF)) (UniProt P20871)
[11] = molecular target: HIV-1 Env of isolate MGRM-AG-012 (CRF_AG), on pseudovirus (HIV-1)
[12] = molecular target: HIV-1 Env of isolate APV-6 (pseudovirus) (HIV-1 isolate APV-6, subtype B)
[13] = molecular target: HIV-1 Env of isolate 92RW008 (HIV-1)
[14] = molecular target: HIV-1 JR-CSF Env D477A (HIV-1 (isolate JR-CSF)) (UniProt P20871)
[15] = molecular target: HIV-1 MGRM-Chronic-B-018 Env (pseudovirus) (HIV-1)
[16] = molecular target: HIV-1 Env of isolate MGRM-C-008 (pseudovirus) (HIV-1 isolate MGRM-C-008, subtype C)
[17] = molecular target: HIV-1 Env of isolate MG RM-D-012 (subtype D) (HIV-1)
[18] = molecular target: HIV-1 Env of isolate MGRM-F1-013 (HIV-1)
[19] = molecular target: HIV-1 Env of isolate MG RM-D-018 (subtype D) (HIV-1)
[20] = molecular target: HIV-1 Env of isolate MG RM-D-026 (subtype D) (HIV-1)
[21] = molecular target: HIV-1 Env of isolate MGRM-F1-022 (HIV-1)
[22] = molecular target: HIV-1 Env of isolate 92UG001 (subtype D) (HIV-1)
[23] = molecular target: HIV-1 94UG103 envelope glycoprotein (Env) on pseudovirus (HIV-1)
[24] = molecular target: HIV-1 92BR020 Env (pseudovirus) (HIV-1)
[25] = molecular target: HIV-1 Env of isolate MG RM-D-016 (subtype D) (HIV-1)
[26] = molecular target: HIV-1 Env of isolate MG RM-D-029 (subtype D) (HIV-1)
[27] = molecular target: HIV-1 MGRM-Chronic-B-002 Env (pseudovirus) (HIV-1)
[28] = molecular target: HIV-1 Env of isolate MG RM-D-020 (subtype D) (HIV-1)
[29] = molecular target: HIV-1 Env of isolate 92UG005 (clade D) (HIV-1)
[30] = molecular target: HIV-1 Env of isolate MGRM-D-018 (clade D) (HIV-1)
[31] = molecular target: HIV-1 MGRM-F1-017 Env (pseudovirus) (HIV-1)
[32] = molecular target: HIV-1 94UG103 envelope protein (Env) on pseudovirus (HIV-1)
[33] = molecular target: HIV-1 MGRM-A-005 envelope glycoprotein (Env) (HIV-1)
[34] = molecular target: HIV-1 JR-CSF envelope protein (Env) on pseudovirus (HIV-1) (UniProt P20871)
[35] = molecular target: HIV-1 93RW029 envelope glycoprotein (Env) (HIV-1)
[36] = molecular target: HIV-1 Env of pseudovirus MGRM-Chronic-B-004, clade B (HIV-1)
[37] = molecular target: HIV-1 Env of isolate SF162 (HIV-1) (UniProt P19549)
[38] = molecular target: HIV-1 APV-13 envelope protein (Env) on pseudovirus (HIV-1)
[39] = molecular target: HIV-1 MGRM-A-003 envelope glycoprotein (Env) (HIV-1)
[40] = molecular target: HIV-1 APV-6 envelope protein (Env) on pseudovirus (HIV-1)
[41] = molecular target: HIV-1 Env of isolate MGRM-G-013 (clade G pseudovirus) (HIV-1)
[42] = molecular target: HIV-1 Env of isolate MGRM-D-022 (clade D) (HIV-1)
[43] = molecular target: HIV-1 Env of isolate MGRM-D-016 (clade D) (HIV-1)
[44] = molecular target: HIV-1 Env of isolate MGRM-D-012 (clade D) (HIV-1)
[45] = molecular target: HIV-1 Env of isolate CMU02 (HIV-1)

5329_C19 (PGT-136) (antibody), sequence (VH): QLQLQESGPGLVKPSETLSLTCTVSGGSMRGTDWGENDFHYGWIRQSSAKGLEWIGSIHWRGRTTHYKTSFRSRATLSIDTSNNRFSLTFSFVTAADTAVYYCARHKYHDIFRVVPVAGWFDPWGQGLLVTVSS
5329_C19 (PGT-136) (antibody), sequence (VL): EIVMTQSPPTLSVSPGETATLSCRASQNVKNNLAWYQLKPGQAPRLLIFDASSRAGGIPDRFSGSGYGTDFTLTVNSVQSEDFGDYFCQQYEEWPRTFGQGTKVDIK
5345_I01 (PGT-137) (antibody), sequence (VH): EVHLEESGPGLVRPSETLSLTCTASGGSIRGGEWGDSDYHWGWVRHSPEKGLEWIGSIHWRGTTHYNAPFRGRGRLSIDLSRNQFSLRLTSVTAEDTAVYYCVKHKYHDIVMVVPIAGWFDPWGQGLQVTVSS
5345_I01 (PGT-137) (antibody), sequence (VL): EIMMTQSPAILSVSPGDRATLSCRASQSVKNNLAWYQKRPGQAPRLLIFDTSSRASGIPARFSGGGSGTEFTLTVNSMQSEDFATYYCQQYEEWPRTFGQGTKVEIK

Row | Substance | IC50 [1] [µg/mL] | IC50, pseudovirus neutralization [2] [µg/mL] | neutralization IC50 [3] [µg/mL] | IC50 [4] [µg/mL] | IC50 [5] [µg/mL] | IC50 [6] [µg/mL] | neutralization IC50 [7] [µg/mL] | Fold IC50 increase relative to wild-type [8] [fold] | IC50, pseudovirus neutralization [9] [µg/mL] | Fold IC50 increase relative to wild-type [10] [fold] | IC50, single-round pseudovirus neutralization [11] [µg/mL] | IC50 (µg/mL) neutralization [12] [µg/mL] | neutralization IC50 [13] [µg/mL] | Fold IC50 increase relative to wild-type [14] [fold] | IC50, pseudovirus neutralization [15] [µg/mL] | IC50 (µg/mL) neutralization [16] [µg/mL] | IC50 (µg/mL), pseudovirus neutralization [17] [µg/mL] | IC50 [18] [µg/mL] | IC50 (µg/mL), pseudovirus neutralization [19] [µg/mL] | IC50 (ug/ml), neutralizing activity [23] [µg/mL] | also measured
1 | 5114_A19 (PGT-128) (antibody) | 0.051 | 16.7 | 0.01 | 0.005 | 24.9 | 14.4 | 0.005 | 1.1 | 0.007 | 1.4 | > 50 | 0.007 | 0.003 | 0.7 |  |  |  |  |  |  | 
2 | 5136_H01 (PGT-131) (antibody) | > 50 | > 50 | 0.041 | > 50 | 2.01 | > 50 | 0.168 | 0.6 | > 50 | 0.7 | > 50 | > 50 | 1.01 | 1 |  |  |  |  |  |  | 
3 | 4858_P08 (PGT-123) (antibody) |  |  |  |  |  |  |  | 1.2 |  | 1.1 |  |  |  | 2.3 | > 50 | 0.011 | > 50 | 0.08 | 0.007 | 0.846 | IC50 (µg/mL), pseudovirus neutralization [20]: > 50 µg/mL; IC50 [21]: 0.075 µg/mL; IC50 (µg/mL), pseudovirus neutralization [22]: > 50 µg/mL; IC50, pseudovirus neutralization [23]: 0.846 µg/mL; IC80, pseudovirus neutralization [23]: 3.29 µg/mL; IC90 (pseudovirus neutralization) [23]: 8.56 µg/mL; IC95, pseudovirus neutralization [23]: > 10 µg/mL; IC50, pseudovirus neutralization [24]: 0.008 µg/mL; IC50 (µg/mL), pseudovirus neutralization [25]: > 50 µg/mL; IC50 (µg/mL), pseudovirus neutralization [26]: > 50 µg/mL; IC50, pseudovirus neutralization [27]: 0.234 µg/mL; IC50 (µg/mL), pseudovirus neutralization [28]: 0.018 µg/mL
4 | 5343_B08 (PGT-135) (antibody) | > 50 | > 50 | 0.068 | > 50 | > 50 | 1.47 | 0.067 | 1.4 | 0.088 | 1.4 | 41.9 | > 50 | 1.42 | 1.5 |  |  |  |  |  |  | 
5 | 5147_N06 (PGT-130) (antibody) | > 50 | > 50 | 0.037 | 5.17 | 1.21 | > 50 | 0.039 | 0.8 | 0.05 | 0.8 | > 50 | > 50 | 0.039 | 1.1 |  |  |  |  |  | 0.635 | neutralization IC50 [29]: 0.474 µg/mL; neutralization IC80 [29]: > 10 µg/mL; neutralization IC90 [29]: > 10 µg/mL; neutralization IC95 [29]: > 10 µg/mL; neutralization IC50 [30]: 0.0378 µg/mL; neutralization IC80 [30]: 0.289 µg/mL; neutralization IC90 [30]: 2.31 µg/mL; neutralization IC95 [30]: > 10 µg/mL
6 | 1495_C14 (PGC14) (antibody) |  |  |  |  |  |  |  |  |  |  |  |  |  |  |  |  |  |  |  |  | IC50 (µg/ml), pseudovirus neutralization [29]: > 50 µg/mL; IC50 (µg/ml), pseudovirus neutralization [31]: > 50 µg/mL; neutralization IC50 [32]: > 50 µg/mL; IC50 (µg/ml), pseudovirus neutralization [33]: > 50 µg/mL; neutralization IC50 [34]: > 50 µg/mL; IC50 (µg/ml), pseudovirus neutralization [30]: > 50 µg/mL; IC50 (µg/ml), pseudovirus neutralization [35]: 42 µg/mL; IC50 (µg/ml), pseudovirus neutralization [36]: > 50 µg/mL; IC50 (µg/ml), pseudovirus neutralization [37]: < 0.0025 µg/mL; neutralization IC50 [38]: > 50 µg/mL; IC50 (µg/ml), pseudovirus neutralization [39]: > 50 µg/mL; neutralization IC50 [40]: 7.41 µg/mL; IC50 (µg/ml), pseudovirus neutralization [41]: > 50 µg/mL; IC50 (µg/ml), pseudovirus neutralization [42]: > 50 µg/mL; IC50 (µg/ml), pseudovirus neutralization [43]: > 50 µg/mL; IC50 (µg/ml), pseudovirus neutralization [44]: > 50 µg/mL; IC50 (µg/ml), pseudovirus neutralization [45]: > 50 µg/mL
7 | 5329_C19 (PGT-136) (antibody) | > 50 | > 50 | > 50 | > 50 | > 50 | 33.7 | 2.33 |  | > 50 |  | > 50 | > 50 | > 50 |  |  |  |  |  |  |  | 
8 | 5141_B17 (PGT-126) (antibody) |  |  |  |  |  |  |  | 1.3 |  | 0.7 |  |  |  | 1.1 | 0.052 | 2.12 | > 50 | > 50 | 0.009 | 0.0091 | IC50 (µg/mL), pseudovirus neutralization [20]: > 50 µg/mL; IC50 [21]: > 50 µg/mL; IC50 (µg/mL), pseudovirus neutralization [22]: > 50 µg/mL; IC50 [24]: 0.0163 µg/mL; IC50, pseudovirus neutralization [24]: 0.015 µg/mL; IC80 [24]: 0.0457 µg/mL; IC90 [24]: 0.0846 µg/mL; IC95 [24]: 0.152 µg/mL; IC50 (µg/mL), pseudovirus neutralization [25]: > 50 µg/mL; IC50 (µg/mL), pseudovirus neutralization [26]: > 50 µg/mL; IC50, pseudovirus neutralization [27]: 0.078 µg/mL; IC50 (µg/mL), pseudovirus neutralization [28]: 0.023 µg/mL
9 | 5345_I01 (PGT-137) (antibody) | > 50 | > 50 | 0.092 |  | > 50 | > 50 | 0.005 |  | > 50 |  | > 50 | > 50 | 0.148 |  |  |  |  |  |  |  | 
10 | 5123_A06 (PGT-125) (antibody) |  |  |  |  |  |  |  | 0.9 |  | 0.5 |  |  |  | 3.4 | > 50 | > 50 | > 50 | > 50 | > 50 | 0.0124 | IC50 (µg/mL), pseudovirus neutralization [20]: > 50 µg/mL; IC50 [21]: > 50 µg/mL; IC50 (µg/mL), pseudovirus neutralization [22]: > 50 µg/mL; neutralization IC50 [23]: 0.0124 µg/mL; neutralization IC80 [23]: 0.0373 µg/mL; neutralization IC90 [23]: 0.071 µg/mL; neutralization IC95 [23]: 0.129 µg/mL; IC50, pseudovirus neutralization [24]: 0.016 µg/mL; IC50 (µg/mL), pseudovirus neutralization [25]: 0.12 µg/mL; IC50 (µg/mL), pseudovirus neutralization [26]: > 50 µg/mL; IC50, pseudovirus neutralization [27]: 0.064 µg/mL; IC50 (µg/mL), pseudovirus neutralization [28]: > 50 µg/mL

— patent publication US20200024330A1
